Measurements: IntAct's records for PubMed 25502805

B1: Mothers against decapentaplegic homolog 4 (Homo sapiens), Q13485 (parent)
chain: MDNMSITNTPTSNDACLSIVHSLMCHRQGGESETFAKRAIESLVKKLKEKKDELDSLITAITTNGAHPSKCVTIQRTLDGRLQVAGRKGFPHVIYARLWRWPDLHKNELKHVKYCQYAFDLKCDSVCVNPYHYERVVSPGIDLSGLTLQSNAPSSMMVKDEYVHDFEGQPSLSTEGHSIQTIQHPPSNRASTETYSTPALLAPSESNATSTANFPNIPVASTSQPASILGGSHSEGLLQIASGPQPGQQQNGFTGQPATYHHNSTTTWTGSRTAPYTPNLPHHQNGHLQHHPPMPPHPGHYWPVHNELAFQPPISNHPAPEYWCSIAYFEMDVQVGETFKVPSSCPIVTVDGYVDPSGGDRFCLGQLSNVHRTEAIERARLHIGKGVQLECKGEGDVWVRCLSDHAVFVQSYYLDREAGRAPGDAVHKIYPSAYIKVFDLRQCHRQMQQQAATAQAAAAAQAAAVAGNIPGPGSVGGIAPAISLSAAAGIGVDDLRRLCILRMSFVKGWGPDYPRQSIKETPCWIEIHLHRALQLLDEVLHTMPIADPQPLD
B2: Mothers against decapentaplegic homolog 4 (Homo sapiens), Q13485 (parent)
chain: B1 chain
partner: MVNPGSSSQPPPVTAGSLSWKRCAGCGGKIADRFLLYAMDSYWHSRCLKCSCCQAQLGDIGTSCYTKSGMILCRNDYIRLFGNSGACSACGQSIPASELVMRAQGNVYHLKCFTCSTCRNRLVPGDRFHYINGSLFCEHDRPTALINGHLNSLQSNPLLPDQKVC

Variants of: B1
Details: with smad3_human SMAD3, P84022
smad3_human SMAD3, P84022, sequence (P84022 whole entry, looked up): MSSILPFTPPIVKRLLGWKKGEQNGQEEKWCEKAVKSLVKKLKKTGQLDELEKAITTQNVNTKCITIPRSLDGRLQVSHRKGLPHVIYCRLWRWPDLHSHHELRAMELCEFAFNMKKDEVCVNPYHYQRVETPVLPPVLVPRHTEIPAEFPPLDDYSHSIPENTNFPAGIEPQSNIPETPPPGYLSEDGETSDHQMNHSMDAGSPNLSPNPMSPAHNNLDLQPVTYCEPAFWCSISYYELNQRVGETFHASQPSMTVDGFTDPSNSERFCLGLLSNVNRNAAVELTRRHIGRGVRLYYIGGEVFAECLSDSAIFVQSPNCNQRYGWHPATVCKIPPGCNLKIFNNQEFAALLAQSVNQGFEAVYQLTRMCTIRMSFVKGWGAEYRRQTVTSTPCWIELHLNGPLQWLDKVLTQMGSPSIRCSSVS
For Y353S, the “effect of a mutation on the interaction” value was “disrupting interaction strength”. For R361C, the “effect of a mutation on the interaction” value was “disrupting interaction strength”. With N13S the “effect of a mutation on the interaction” value was “with no effect”.

Variants of: B1
Details: with smad9_human SMAD9, O15198
smad9_human SMAD9, O15198, sequence (O15198 whole entry): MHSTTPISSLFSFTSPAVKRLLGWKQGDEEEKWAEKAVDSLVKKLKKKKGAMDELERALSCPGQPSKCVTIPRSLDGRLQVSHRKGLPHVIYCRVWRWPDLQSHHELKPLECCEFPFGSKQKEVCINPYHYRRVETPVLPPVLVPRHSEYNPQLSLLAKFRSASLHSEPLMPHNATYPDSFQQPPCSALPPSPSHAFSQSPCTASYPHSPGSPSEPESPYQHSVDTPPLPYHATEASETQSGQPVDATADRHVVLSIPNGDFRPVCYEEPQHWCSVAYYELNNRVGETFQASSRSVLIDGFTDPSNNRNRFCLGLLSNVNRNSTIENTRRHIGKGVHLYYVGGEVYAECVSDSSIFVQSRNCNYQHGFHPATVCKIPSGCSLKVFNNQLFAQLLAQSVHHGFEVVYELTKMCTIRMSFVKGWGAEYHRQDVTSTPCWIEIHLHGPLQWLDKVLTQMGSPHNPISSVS
For Y353S, the “effect of a mutation on the interaction” value was “disrupting interaction strength”. With R361C the “effect of a mutation on the interaction” value was “disrupting interaction strength”. For N13S, the “effect of a mutation on the interaction” value was “with no effect”.

Variants of: B1
Details: with smad3_human SMAD3, P84022
Remark: another data set of the same source
For V350D, the “effect of a mutation on the interaction” value was “disrupting interaction strength”. With G352R the “effect of a mutation on the interaction” value was “disrupting interaction strength”. For E330K, the “effect of a mutation on the interaction” value was “disrupting interaction strength”. L533R was tested, and the “effect of a mutation on the interaction” value was “disrupting interaction strength”. With C324R the “effect of a mutation on the interaction” value was “disrupting interaction strength”.

Variants of: B2
Details: with lmo4_human LMO4, P61968
With N13S the “effect of a mutation on the interaction” value was “with no effect”. R361C was tested, and the “effect of a mutation on the interaction” value was “with no effect”.
